Measured values from patent US11325945B2, “Peptide based PCSK9 vaccine” (CADILA HEALTHCARE LIMITED, priority 2017, dated 2022).
Non-standard residues stand in square brackets, D forms with d. Primed or numbered codes have the meaning given here. No end group written: not given here. 2‑aminophenyl pentanoic acid = 2-Aminophenyl pentanoic acid; Hyp = O=C(O)[C@@H]1C[C@@H](O)CN1; NMeI = CC[C@H](C)[C@H](NC)C(=O)O; hArg = N=C(N)NCCCC[C@H](N)C(=O)O; Cit = NC(=O)NCCC[C@H](N)C(=O)O; Nle = CCCC[C@H](N)C(=O)O; Aib = CC(C)(N)C(=O)O

Legend:
recombinant human PCSK9 = biological target: T1, recombinant human PCSK9 (Homo sapiens, UniProt Q8NBP7); assay: Affinity of new peptides for recombinant human PCSK9 by surface plasmon resonance (Biacore T200); assay type: binding; conditions: SPR, 25° C.
T1 construct: His; purchased BPS Biosciences
T1 sequence (Q8NBP7 153-692): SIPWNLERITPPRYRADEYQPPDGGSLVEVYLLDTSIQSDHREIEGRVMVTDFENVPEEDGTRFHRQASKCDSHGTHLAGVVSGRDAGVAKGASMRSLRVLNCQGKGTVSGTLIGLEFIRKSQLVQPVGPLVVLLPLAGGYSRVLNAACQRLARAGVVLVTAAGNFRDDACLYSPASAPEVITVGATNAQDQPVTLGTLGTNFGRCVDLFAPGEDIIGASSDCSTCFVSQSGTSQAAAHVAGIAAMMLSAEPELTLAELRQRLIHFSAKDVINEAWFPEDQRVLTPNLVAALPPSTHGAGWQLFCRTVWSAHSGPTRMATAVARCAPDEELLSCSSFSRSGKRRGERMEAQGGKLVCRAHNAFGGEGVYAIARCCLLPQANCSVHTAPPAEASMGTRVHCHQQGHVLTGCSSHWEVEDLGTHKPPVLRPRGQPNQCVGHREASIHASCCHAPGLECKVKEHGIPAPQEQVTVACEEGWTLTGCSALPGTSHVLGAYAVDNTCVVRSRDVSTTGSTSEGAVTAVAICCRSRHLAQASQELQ
Description: (§1) Affinity parameters of new peptides for recombinant human PCSK9 were analyzed by surface plasmon resonance (SPR), using a Biacore instrument (Biacore T200, GE Healthcare). SPR experiments were performed at 25° C. with a BIACORE T200 apparatus (GE Healthcare, Uppsala, Sweden).
(§2) Purified recombinant human PCSK9 (His-tagged, BPS Biosciences) diluted to 100-150 μg/mL in 10 mM acetate buffer, pH 5.0, was immobilized on one of the four flow cells of a Series S Sensor Chip CMS to a level of approximately 6000 to 8000 RU (resonance units) by the use of amine-coupling chemistry. The surface was blocked with 1M ethanolamine, pH 8.5. Whereas one flow cell was immobilized as blank for reference subtraction (no PCSK9). 10 mM Hepes (pH 7.4) with 150 mM NaCl was used as running buffer. The rest two flow cells were saved for future use.
(§3) 100× Stock solutions of NCE (new peptides) were made in 100% DMSO and were diluted to range of concentrations in 10 mM Hepes, pH7.4+150 mM NaCl so that the final conc of DMSO is kept at 1%. Binding/Kinetics studies were conducted by passing various concentrations of NCEs over blank as well as ligand (protein) immobilized surface. Each cycle consisted of a 60 s or 120 s analyte (diluted small molecule drug) injection at flow rate with between 5 to 30 μL/min (the association phase), followed by a dissociation phase with between 60 to 180 s. If required, regeneration was done using a 30 s (15 μL) injection of 10 mM glycine/HCl (pH 1.5) and 20 s or 30 s (10 or 15 μL) injection of 10 mM NaOH. The data were analyzed using the Biacore T200 Evaluation software. All the curves were reference-subtracted. Baselines were adjusted to zero for all curves and data were presented as binding RU (Average of 5 s window) 5 s before end of sample injection.
For KD (equilibrium dissociation constant) determinations analyte curves were subtracted from buffer blank and modeled assuming a simple 1:1 interaction to generate the kinetic data.

LDLR-PCSK9 interaction = LDLR-PCSK9 interaction inhibition assay with serum from vaccine treated animals (PCSK9[Biotinylated]-LDLR Binding Assay Kit); assay type: biochemical; conditions: peptide formulations, week 5, in words
Description: (§4) Female BALB/c mice of 12-15 weeks of age issued from animal house and kept for […]. Mice had access to food and water ad libitum and were kept under a 12 hrs light/dark cycle. On Day-0 (pre-treatment) animals bled and serum was harvested for total cholesterol measurement. Animals were randomized and grouped to various treatments based on their total cholesterol and body weights. On next day of Day-0 (pre-treatment) blood collection animals were immunised with 0.3 ml of vaccine formulations as mentioned Table No. 1 by subcutaneous or intramuscular route. Next booster injection was given on 2 weeks and 4 weeks after first injection and animals were bled for immunogenicity measurement on two weeks thereafter till week 7 and then every four week till 32 week, detailed schedule of blood collection was Day-0 (pre-treatment) from there 5th, 7th, 20th, 24th, 28th, 32nd, 45th and 57th week after first vaccine administration. Serum was separated and serum total cholesterol was measured and immunogenicity or antibody confirmation was done using ELISA for PCSK9 antibody titer, binding of serum antibodies with human PCSK9 using Surface plasmon resonance (SPR) assay and LDLR-PCSK9 interaction inhibition assay.
Inhibition of LDLR-PCSK9 interaction by antibody (Ab) in serum from vaccine treated animal were assayed using BPS Bioscience in-vitro PCSK9[Biotinylated]-LDLR Binding Assay Kit (BPS Bioscience, San Diego, Calif., USA) with minor modifications. First, LDLR ectodomain is coated on a 96-well plate and plate was incubated overnight. Next, PCSK9-biotin was diluted in 1×PCSK9 assay buffer to obtain 2.5 ng/μl (50 ng/20 μl) concentration and this master mix, test inhibitor (serum samples from animal studies), inhibitor buffer was added to LDL-R coated plate and incubated at room temperature for 2 hours. Finally, the plate is treated with streptavidin-HRP followed by addition of an HRP substrate to produce chemiluminescence, which was then measured using a chemiluminescence reader according to the manufacturer's instructions. […]

PCSK9 = assay: Immunogenicity study in BALB/c mice: anti-PCSK-9 ELISA antibody titers in serum; assay type: in vivo, mouse; conditions: peptide formulations, in words
Description: as §4
At specific intervals of time (15 days post immunization with each booster), serum samples were collected from all groups of mice. 96-well ELISA plates (#442402) were pre-coated with PCSK-9 protein 50 ng/well and plate incubated overnight at 2-8° C. Next day, wells were washed to remove unbound protein and blocked in 2% skimmed milk-PB ST for 2 hours, and washed with PBST. Sera samples were diluted 1:20 with 0.2% skimmed milk made in PBST. Appropriate volume of samples and standards was added to each well, and incubated for 1 hour at 37° C. Anti-mouse IgG secondary HRP-labeled antibody was added to each well and incubated at 37° C. for 1 hour, then washed. […] Plates were read at 492 nm on a Spectramax microplate reader. […] By using the negative control value, cut-off value was calculated and the corrected OD's above the cut off value were treated as […]. […]

human PCSK9 = assay: Serum antibody detection by affinity determination against human PCSK9 using SPR assay; assay type: binding
Description: as §1, §2
as §3, with “Baselines were adjusted to zero for all curves and data were presented as binding RU (Average of 5 s window) 5 s before end of sample injection.” left out
Female BALB/c mice of 12-15 weeks of age issued from animal house and kept for 2-3 acclimatization. […] Serum was separated and serum total cholesterol was measured and immunogenicity or antibody confirmation was done using ELISA for PCSK9 antibody titer, binding of serum antibodies with human PCSK9 using Surface plasmon resonance (SPR) assay and LDLR-PCSK9 interaction inhibition assay.

Binding - Response Unit(RU) (recombinant human PCSK9; peptide 50 μM) | Binding - Response Unit(RU) (recombinant human PCSK9; peptide 100 μM) | LDLR-PCSK9 interaction inhibition compared with Seq. ID No.1 (LDLR-PCSK9 interaction) | Substance | antibody titers against human PCSK9 as compared to Seq.ID.No.1 (PCSK9) | antibody response (SPR) as compared to Seq.ID.No. 1 (human PCSK9; week 5, in words) | antibody response (SPR) as compared to Seq.ID.No. 1 (human PCSK9; week-57, in words)
7.4 RU | – | – | 1 (SIPWNLERITPC; PCSK9) [compound 1] | – | – | –
13.05 RU | 30.00 RU | – | 4 (SIPWNLER[Nle]TPC) [compound 4] | – | – | –
2.30 RU | 7.10 RU | – | 5 (SIPWNLER[Aib]TPC) [compound 5] | – | – | –
6.55 RU | 17.50 RU | – | 6 (SIPWNLE[hArg]ITPC) [compound 6] | – | – | –
6.65 RU | 16.00 RU | – | 7 (SIPWN[Nle]ERITPC) [compound 7] | – | – | –
5.70 RU | 13.25 RU | – | 8 (SI[Hyp]WNLERITPC) [compound 8] | – | – | –
3.00 RU | 7.50 RU | – | 10 (SIPWN[Aib]ERITPC) [compound 10] | – | – | –
3.10 RU | 6.70 RU | – | 12 (SIPWNLE[Cit]ITPC) [compound 12] | – | – | –
9.75 RU | 37.35 RU | – | 13 (SIPWNLERI[Aib]PC) [compound 13] | – | – | –
7.10 RU | 15.00 RU | – | 14 ([Aib]IPWNLERITPC) [compound 14] | – | – | –
11.45 RU | 29.85 RU | – | 15 (S[NMeI]IPWNLERITPC) [compound 15] | – | – | –
10.20 RU | 17.85 RU | – | 18 (SIP[2‑aminophenyl pentanoic acid]NLERITPC) [compound 18] | – | – | –
35.15 RU | 85.90 RU | – | 19 (SIP[(S)‑2‑amino‑3‑(2′-ethyl-4′-methoxy-(1,1′-biphenyl)-4-yl)propanoic acid]NLERITPC) [compound 19] | – | – | –
– | – | significantly higher | SI-Hyp-WNLERITPC (SI[Hyp]WNLERITPC) [Seq. ID. No. 8] | higher | significantly higher antibody response | –
– | – | significantly higher | SIPWN-Nle-ERITPC (SIPWN[Nle]ERITPC) [Seq. ID. No. 7] | higher | – | –
– | – | significantly higher | SIPWNLE-Cit-ITPC (SIPWNLE[Cit]ITPC) [Seq. ID. No. 12] | higher | significantly higher antibody response | significantly higher antibody response
